The target of the data set is T1, His-Dis3l2 D389N (mouse, UniProt Q8CI75 1-870, D389N).
T1 sequence: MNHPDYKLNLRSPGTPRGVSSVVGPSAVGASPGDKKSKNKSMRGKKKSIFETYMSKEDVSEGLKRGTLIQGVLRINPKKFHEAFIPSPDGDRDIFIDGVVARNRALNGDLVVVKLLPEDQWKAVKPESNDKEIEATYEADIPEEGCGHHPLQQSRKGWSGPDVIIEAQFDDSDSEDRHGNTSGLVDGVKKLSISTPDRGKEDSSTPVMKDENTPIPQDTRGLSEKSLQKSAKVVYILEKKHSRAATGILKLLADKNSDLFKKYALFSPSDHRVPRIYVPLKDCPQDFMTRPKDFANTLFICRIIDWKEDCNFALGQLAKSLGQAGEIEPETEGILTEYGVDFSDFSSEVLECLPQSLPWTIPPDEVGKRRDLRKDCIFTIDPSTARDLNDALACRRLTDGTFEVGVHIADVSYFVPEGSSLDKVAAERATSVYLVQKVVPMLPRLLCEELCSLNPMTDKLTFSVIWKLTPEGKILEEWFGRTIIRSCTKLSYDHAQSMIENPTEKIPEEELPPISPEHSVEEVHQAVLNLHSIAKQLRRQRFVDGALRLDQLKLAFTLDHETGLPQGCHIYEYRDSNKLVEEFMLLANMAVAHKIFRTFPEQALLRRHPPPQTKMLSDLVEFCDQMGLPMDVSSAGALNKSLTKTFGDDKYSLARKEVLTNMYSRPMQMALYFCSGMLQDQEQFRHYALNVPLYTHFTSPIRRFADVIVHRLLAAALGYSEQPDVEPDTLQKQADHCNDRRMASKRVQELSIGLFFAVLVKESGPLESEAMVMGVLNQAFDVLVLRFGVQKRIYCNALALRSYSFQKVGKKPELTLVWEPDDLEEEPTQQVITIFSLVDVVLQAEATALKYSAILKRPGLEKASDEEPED
The experiment in a line: EMSA. Background: A gel shift assay detects complexes by their altered migration in electrophoresis.

B1: mmu-pre-let-7a-1 (structured_RNA)
RNA: UGAGGUAGUAGGUUGUAUAGUUUUAGGGUCACACCCACCACUGGGAGAUAACUAUACAAUCUACUGUCUUUCC
Consider B1, for which the binding result is given as “no binding”.

B2: mmu-pre-let-7a-1+14U (structured_RNA)
RNA: UGAGGUAGUAGGUUGUAUAGUUUUAGGGUCACACCCACCACUGGGAGAUAACUAUACAAUCUACUGUCUUUCCUUUUUUUUUUUUUU
For the molecule B2, the binding result is reported as “binds”.
